T1: Boi2 SH3 (BOI2_YEAST), P39969
T1 chain: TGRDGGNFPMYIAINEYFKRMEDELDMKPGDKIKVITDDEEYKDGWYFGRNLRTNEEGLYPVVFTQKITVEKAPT

T2: Yhr016c SH3 (YSC84_YEAST), P32793
T2 chain: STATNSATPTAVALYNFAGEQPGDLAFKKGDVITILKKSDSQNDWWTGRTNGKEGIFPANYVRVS

T3: Yfr024 SH3 (LSB3_YEAST), P43603
T3 chain: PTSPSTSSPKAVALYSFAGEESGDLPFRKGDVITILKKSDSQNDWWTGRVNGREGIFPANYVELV

T4: Rvs167 SH3 (RV167_YEAST), P39743
T4 chain: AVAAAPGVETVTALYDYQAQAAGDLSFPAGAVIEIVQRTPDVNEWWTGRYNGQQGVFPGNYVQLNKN

T5: Boi1 SH3 (BOI1_YEAST), P38041
T5 chain: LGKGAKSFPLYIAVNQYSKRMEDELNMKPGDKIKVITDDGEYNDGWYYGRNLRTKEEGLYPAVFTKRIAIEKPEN


Assays:
Assay in all cases: SPOT array
[1] = molecular target: T1, Boi2 SH3 (BOI2_YEAST), P39969
[2] = molecular target: T2, Yhr016c SH3 (YSC84_YEAST), P32793
[3] = molecular target: T3, Yfr024 SH3 (LSB3_YEAST), P43603
[4] = molecular target: T4, Rvs167 SH3 (RV167_YEAST), P39743
[5] = molecular target: T5, Boi1 SH3 (BOI1_YEAST), P38041

Binder	normalised SPOT signal, Boehringer light units (BLU); mean over the file's lines of this peptide [1]	normalised SPOT signal, Boehringer light units (BLU); mean over the file's lines of this peptide [2]	normalised SPOT signal, Boehringer light units (BLU); mean over the file's lines of this peptide [3]	normalised SPOT signal, Boehringer light units (BLU); mean over the file's lines of this peptide [4]	normalised SPOT signal, Boehringer light units (BLU); mean over the file's lines of this peptide [5]
QTSPGQPRKGQNGS [YFR028C 427-440]	22.6	177	118	64	157
QSQPPRPPRPAANL [YGR268C 24-37]	16	11000	27400	105	577
RAVPILPPRNNVEP [YBR108W 543-556]	77	33600	38300	59500	49.7
QYYPEEPTKPTVKT [YGR019W 6-19]	37.2	85.8	49.9	6.4	55.2
QSNPTSPTKQTFTI [YBL085W 600-613]	65.7	182	148	60.4	62.2
QRHPKSPVKKPMTS [YCL014W 878-891]	90.5	169	676	192	123
QYIPPPPPKYINSK [YDR207C 482-495]	45.9	81.6	393	112	122
RAPPPVPKKPSSRI [YIR003W 387-400]	42	501	28900	29.1	129

Results, then the binder that gave them:

normalised SPOT signal, Boehringer light units (BLU); mean over the file's lines of this peptide [1]	normalised SPOT signal, Boehringer light units (BLU); mean over the file's lines of this peptide [2]	normalised SPOT signal, Boehringer light units (BLU); mean over the file's lines of this peptide [3]	normalised SPOT signal, Boehringer light units (BLU); mean over the file's lines of this peptide [4]	normalised SPOT signal, Boehringer light units (BLU); mean over the file's lines of this peptide [5]	Binder
48.8	146	1420	35.4	56.9	QSTPTPPAKRLFLI [YKL165C 41-54]
14	118	61.7	2.1	103	QRLPGEPGREQAPN [YOR322C 391-404]
92.9	1090	2360	117	147	RSSPWSPSRSHGAV [YLR169W 91-104]
35.1	263	117	33.9	42.7	QTYPAQPPKIGNAF [YMR016C 219-232]
27.2	122	257	45.9	143	QQLPLEPLKPTATG [YOR329C 404-417]
22.9	117	0	23.7	11.9	QVPPKSPEKSGWLY [YNL257C 304-317]
194	613	5420	104	117	QRQPKRPKRYSLLL [YJR147W 216-229]
3450	408	1890	906	33500	QSPPRSPGRSPTRR [YLR086W 108-121]
27.8	120	112	24.1	74.9	RDKPSEPERTKDGS [YJL184W 49-62]
